Test [1] has as its target PD-L1, histidine (His)-tagged (UniProt Q9NZQ7). Briefly: AlphaScreen or HTRF; AlphaLISA kit AL356 HV/C/F (PerkinElmer), competition: biotin-conjugated PD-1 on streptavidin-coated donor beads, His-tagged PD-L1 on anti-His acceptor beads; 2 uL each of inhibitor dilution, PD-L1 (25 nM), PD-1 (25 nM) and the two beads in 10 uL; 25 °C, 90 min; IC50 from sigmoidal fit.
A further test addresses PD-L1 (Homo sapiens) (UniProt Q9NZQ7). Particulars: cited from earlier work.

Chain of PD-L1, histidine (His)-tagged (Q9NZQ7 19-238): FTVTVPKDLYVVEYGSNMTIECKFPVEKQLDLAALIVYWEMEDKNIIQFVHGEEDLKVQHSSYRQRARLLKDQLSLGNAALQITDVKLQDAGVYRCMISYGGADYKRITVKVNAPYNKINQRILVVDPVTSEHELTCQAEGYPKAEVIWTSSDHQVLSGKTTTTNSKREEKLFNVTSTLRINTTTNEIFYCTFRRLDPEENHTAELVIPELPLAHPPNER
Chain of PD-1 (Q15116 25-170): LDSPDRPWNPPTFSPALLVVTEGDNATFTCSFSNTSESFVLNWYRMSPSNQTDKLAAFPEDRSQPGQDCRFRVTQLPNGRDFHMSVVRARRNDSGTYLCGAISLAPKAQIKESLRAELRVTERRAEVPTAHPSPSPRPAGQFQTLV
Chain of PD-L1 (Homo sapiens) (Q9NZQ7 19-238): as the sequence (Q9NZQ7 19-238) above

As to CERXNKM (peptide), the IC50 in test [1] was 308 µM.

As to FWRXNNI (peptide), the IC50 in test [1] was 312 µM.

Turning to PD-1 (from UniProt Q15116), the Kd with PD-L1 (Homo sapiens) is 6.4 µM.
